Data: paper PMC2171502 (The Journal of Cell Biology, 2005)
Values joined by “and” are separate entries in the source; they are usually repeats but may differ in a detail not shown here. Equal values may be shown once.

B1: Vrp1p-His (full-length S. pombe verprolin Vrp1p with a COOH-terminal His-tag) (natural protein)
chain: MAPAPPPPPPAPAPAAAAPAPPLMTGDRSALLNSIQKGKKLKKATTNDRSAPVVGGGVVGERKSNTPKSFAAPPVPTGAPSLPTSSNNTQQAEERPSMPALGGLFAGGMPKLRHIGKSSASAAPPSAPAPPTPQSELRPPTSAPPRPSIPPPSPASAPPIPSKAPPIPSSLPPPAQPAAPVKSPPSAPSLPSAVPPMPPKVPPPPLSQAPVANTSSRPSSFAPPAGHAPNVTSESPKFPNRGPSIPSASVPPVPPSSYVLQQRPNRVDDHGRFHFKDDSYLPIPHPFLGVPKVYRGGSGTTVPLNLSSF

Tests used:
[1] = target: B1; test: pull-down
actin monomers = actin monomers (UniProt P68135 1-377); test: pull-down

Kd [1] | Kd (actin monomers) | Binder
4600 nM and 5600 nM | – | GST-Myo1p-23A (GST fused to the TH2-SH3-CA domains of the S. pombe myosin-I Myo1p tail) (domain or fragment, UniProt Q9Y7Z8 965-1217, looked up) TSKSKPFPRLATGGSTAAARGPRPVVQNKPAATKPVSMPAAKSKPAPMANPVSTAQQTQNRPPAPAMQARPNTTQAAAPVTSTTTTIKQATTVSASKPAPSTVTSAASSPSNISKPSAPVANNVSKPSAVPPPPPPPPAEVEKKDLYLALYDFAGRSPNEMTIKKDEIIEIVQKEPSGWWLALKNGAEGWVPATYVTEYKGSTPQTTASSTNVAAQANNNASPAEVNNLAGSLADALRMRASAVRGSDEEEDW
– | 1000 nM and 900 nM and 800 nM | B1
